We go through one substance from paper PMC7958378.

For the assay, the target named is GmPUB13(252-630) (soybean (Glycine max)). Briefly: ITC. Background: Isothermal titration calorimetry measures the heat released or taken up as one component is titrated into another.

A word on the Kd: it is the concentration at which binding is half-saturated. The low end stands for higher affinity, the high end for lower affinity. In the case of “Avr1d (purified protein for ITC and gel filtration) (natural protein)”, the dissociation constant (Kd) turned out to be 89 nM.
